Test results as given in patent US20110059889A1 (SYNTONIX PHARMACEUTICALS, published 2011).
Read-outs that look alike come from different tables or passages of the source. Values belong to the binder of their own block, whether it stands above or below them. Numbered stars: 1 amine (or outer) side, 2 acyl side, 3 side chain; on linkers, the order of the positions; unused ones are H or OH. Bridge positions count the residues as written; N and C are the ends. Square brackets hold non-standard residues; d marks the D form. Ends that are not written are not given here. X2 = (3R)‑3‑amino‑1‑carboxymethyl‑valerolactam, O=C1[C@H](N[*:1])CCCN1CC(=O)[*:2]; X1 = 3‑amino‑2‑oxo‑1‑piperidine‑acetic acid, O=C1C(N[*:1])CCCN1CC(=O)[*:2]; NMeL = CN[C@@H](CC(C)C)C(=O)O; Pen = CC(C)(S)[C@H](N)C(=O)O; NMeA = CN[C@@H](C)C(=O)O; Sar = CNCC(=O)O

Experiments:
[1] = target: T1, soluble human FcRn (shFcRn) (human, UniProt P55899 24-297; P61769 21-119); experiment: IgG competition ELISA
T1 construct: Biotinylated for the ELISA, amine-coupled to a CM5 chip for SPR; also called biotinylated shFcRn
Description: (§1) The wells were coated with 100 μl/well of 1 μg/ml biotinylated-shFcRn in Buffer A. The plate was sealed and incubated at 37° C. for 2 hours. Afterwards, the plate was washed with 200 μl/well of Buffer B (Buffer B: 100 mM MES pH 6, 150 mM NaCl, 0.5% BSA IgG-free (Jackson ImmunoResearch, West Grove, Pa.), 0.05% Tween-20). […] To allow for mixing, the plate was rocked for 2 minutes, sealed and incubated at 37° C. for 2 hours. […] The plate was covered, incubated for 30 minutes at room temperature and washed 4 times with 200 μl/well of ice-cold buffer B. SureBlue TMB substrate solution (100 μl/well, KPL, Gaithersburg, Md.) was added and the plate was allowed to incubate at room temperature until color developed, which took 5 to 10 minutes. Once color developed, 100 μl/well of TMB stop solution (KPL, Gaithersburg, Md.) was added and the absorbance was measured at 450 nm. The data was plotted as absorbance vs. peptide concentration to derive the inhibitory concentration 50% (IC₅₀) values.

[2] = target: T1, soluble human FcRn (shFcRn); experiment: SPR pH 6
Description: (§2) The following steps were performed to cross-link soluble human or cynomolgus FcRn to the dextran surface of a CM5 sensor chip (Biacore AB, Uppsala, Sweden) by an amine coupling reaction involving 1-ethyl-(3-dimethylaminopropyl)-carbodiimide hydrochloride (EDC) (Biacore AB, Uppsala, Sweden) and N-hydroxysuccinimide (NHS) (Biacore AB, Uppsala, Sweden) as recommended by Biacore (BIAapplications Handbook, version AB, section 4.2, Biacore AB, Uppsala, Sweden). […] Residual sites on the FcRn flow cell were blocked with 1 M ethanolamine hydrochloride pH 8.5 (Biacore AB, Uppsala, Sweden). A control flow cell was blocked with ethanolamine for reference subtraction. For analysis of the monomeric peptides, FcRn was coated to a final density of 4000-5000 response units (RU). For analysis of the peptide dimers, FcRn was coated to a density of 2000-2500 RU. All SPR measurements were performed using a BIACORE 3000 Instrument (Biacore AB Uppsala, Sweden). For measurements done at either pH 6 or pH 7.4, experiments were performed in 50 mM phosphate, 100 mM sodium chloride, 0.01% surfactant P20 (Biacore AB, Uppsala, Sweden).
Ten, 2-fold dilutions of the peptide were injected over the FcRn-CM5 chip at a rate of 20 μl/min for 2 min. The peptide was dissociated from the chip for 2.5 minutes with buffer. […] Sensorgrams were generated and analyzed using BiaEval software version 3.1 (Biacore AB, Uppsala, Sweden). […]

[3] = target: T1, soluble human FcRn (shFcRn); experiment: IgG competition ELISA; remark: listed apart in the source
Description: as §1

[4] = target: T1, soluble human FcRn (shFcRn); experiment: SPR pH 6; remark: listed apart in the source
Description: as §2
(§3) Ten, 2-fold dilutions of the peptide were injected over the FcRn-CM5 chip at a rate of 20 μl/min for 2 min. The peptide was dissociated from the chip for 2.5 minutes with buffer. Any remaining peptide was removed from the chip with a 30 second injection of HBS-P buffer (Biacore AB, Uppsala, Sweden) at a rate of 30 μl/min. Sensorgrams were generated and analyzed using BiaEval software version 3.1 (Biacore AB, Uppsala, Sweden). The equilibrium RU observed for each injection was plotted against concentration. The equilibrium KD values were derived by analysis of the plots using the steady state affinity model included in the BiaEval software.

[5] = target: T1, soluble human FcRn (shFcRn); experiment: IgG competition ELISA; remark: listed apart in the source
Description: as §1

[6] = target: T1, soluble human FcRn (shFcRn); experiment: IgG competition ELISA; remark: listed apart in the source
Description: as §1

[7] = target: T1, soluble human FcRn (shFcRn); experiment: SPR pH 6; remark: listed apart in the source
Description: as §2, §3

[8] = target: T1, soluble human FcRn (shFcRn); experiment: IgG competition ELISA; remark: listed apart in the source
Description: as §1

[9] = target: T1, soluble human FcRn (shFcRn); experiment: SPR pH 6; remark: listed apart in the source
Description: as §2, §3

[10] = target: T1, soluble human FcRn (shFcRn); experiment: IgG competition ELISA; remark: listed apart in the source
Description: as §1

[11] = target: T1, soluble human FcRn (shFcRn); experiment: IgG competition ELISA; remark: listed apart in the source
Description: as §1

B2: Peptide No. 142 (peptide)
peptide: RF[Pen]TGHFG[dP]LYPC-NH2
modifications: disulfide 3-13; N-terminus assumed
SMILES: CC(C)C[C@@H]1NC(=O)[C@H]2CCCN2C(=O)CNC(=O)[C@H](Cc2ccccc2)NC(=O)[C@H](Cc2c[nH]cn2)NC(=O)CNC(=O)[C@H]([C@@H](C)O)NC(=O)[C@@H](NC(=O)[C@H](Cc2ccccc2)NC(=O)[C@@H](N)CCCNC(=N)N)C(C)(C)SSC[C@@H](C(N)=O)NC(=O)[C@@H]2CCCN2C(=O)[C@H](Cc2ccc(O)cc2)NC1=O
Kd [2]: 140 nM
IC50 [3]: 1500 nM

B4: Peptide No. 97 (peptide)
peptide: QRY[Pen]TGHFGGLYPCNGP-NH2
modifications: disulfide 4-14; N-terminus assumed
SMILES: CC(C)C[C@@H]1NC(=O)CNC(=O)CNC(=O)[C@H](Cc2ccccc2)NC(=O)[C@H](Cc2c[nH]cn2)NC(=O)CNC(=O)[C@H]([C@@H](C)O)NC(=O)[C@@H](NC(=O)[C@H](Cc2ccc(O)cc2)NC(=O)[C@H](CCCNC(=N)N)NC(=O)[C@@H](N)CCC(N)=O)C(C)(C)SSC[C@@H](C(=O)N[C@@H](CC(N)=O)C(=O)NCC(=O)N2CCC[C@H]2C(N)=O)NC(=O)[C@@H]2CCCN2C(=O)[C@H](Cc2ccc(O)cc2)NC1=O
IC50 [6]: 2400 nM

B5: Peptide No. 195 (peptide)
peptide: QRF[Pen]GGHFGGLYPCNGP-NH2
modifications: disulfide 4-14; N-terminus assumed
SMILES: CC(C)C[C@@H]1NC(=O)CNC(=O)CNC(=O)[C@H](Cc2ccccc2)NC(=O)[C@H](Cc2c[nH]cn2)NC(=O)CNC(=O)CNC(=O)[C@@H](NC(=O)[C@H](Cc2ccccc2)NC(=O)[C@H](CCCNC(=N)N)NC(=O)[C@@H](N)CCC(N)=O)C(C)(C)SSC[C@@H](C(=O)N[C@@H](CC(N)=O)C(=O)NCC(=O)N2CCC[C@H]2C(N)=O)NC(=O)[C@@H]2CCCN2C(=O)[C@H](Cc2ccc(O)cc2)NC1=O
Kd [7]: 760 nM

B6: Peptide No. 98 (peptide)
peptide: QRW[Pen]TGHFGGLYPCNGP-NH2
modifications: disulfide 4-14; N-terminus assumed
SMILES: CC(C)C[C@@H]1NC(=O)CNC(=O)CNC(=O)[C@H](Cc2ccccc2)NC(=O)[C@H](Cc2c[nH]cn2)NC(=O)CNC(=O)[C@H]([C@@H](C)O)NC(=O)[C@@H](NC(=O)[C@H](Cc2c[nH]c3ccccc23)NC(=O)[C@H](CCCNC(=N)N)NC(=O)[C@@H](N)CCC(N)=O)C(C)(C)SSC[C@@H](C(=O)N[C@@H](CC(N)=O)C(=O)NCC(=O)N2CCC[C@H]2C(N)=O)NC(=O)[C@@H]2CCCN2C(=O)[C@H](Cc2ccc(O)cc2)NC1=O
IC50 [6]: 1500 nM

B8: Peptide No. 115 (peptide)
peptide: QRF[Pen]TGHFGGFYPCNGP-NH2
modifications: disulfide 4-14; N-terminus assumed
SMILES: C[C@@H](O)[C@@H]1NC(=O)[C@@H](NC(=O)[C@H](Cc2ccccc2)NC(=O)[C@H](CCCNC(=N)N)NC(=O)[C@@H](N)CCC(N)=O)C(C)(C)SSC[C@@H](C(=O)N[C@@H](CC(N)=O)C(=O)NCC(=O)N2CCC[C@H]2C(N)=O)NC(=O)[C@@H]2CCCN2C(=O)[C@H](Cc2ccc(O)cc2)NC(=O)[C@H](Cc2ccccc2)NC(=O)CNC(=O)CNC(=O)[C@H](Cc2ccccc2)NC(=O)[C@H](Cc2c[nH]cn2)NC(=O)CNC1=O
Kd [4]: 400 nM
IC50 [5]: 4100 nM

B11: Peptide No. 194 (peptide)
peptide: QRFCTGHFGXYPCNGP
modifications: Pen 4; X 10 = D,L-Friedinger's lactam (dipeptide mimetic in place of Gly-Leu); disulfide 4-13; C-terminal amide
IC50 [11]: 4900 nM

B12: Peptide No. 178 (peptide)
peptide: RF[Pen]TGHF[X1]LYPC-NH2
modifications: disulfide 3-12
Kd [9]: 160 nM
IC50 [10]: 660 nM

B13: Peptide No. 179 (peptide)
peptide: RF[Pen]TGHF[X1]LYPC-NH2
modifications: disulfide 3-12
Kd [9]: 670 nM
IC50 [10]: 7200 nM

B16: Peptide No. 99 (peptide)
peptide: RF[Pen]TGHFGGLYPC-NH2
modifications: disulfide 3-13; N-terminus assumed
SMILES: CC(C)C[C@@H]1NC(=O)CNC(=O)CNC(=O)[C@H](Cc2ccccc2)NC(=O)[C@H](Cc2c[nH]cn2)NC(=O)CNC(=O)[C@H]([C@@H](C)O)NC(=O)[C@@H](NC(=O)[C@H](Cc2ccccc2)NC(=O)[C@@H](N)CCCNC(=N)N)C(C)(C)SSC[C@@H](C(N)=O)NC(=O)[C@@H]2CCCN2C(=O)[C@H](Cc2ccc(O)cc2)NC1=O
IC50 [3]: 2000 nM
IC50 [10]: 2000 nM

B18: Peptide No. 96 (peptide)
peptide: QR[dF][Pen]TGHFGGLYPCNGP-NH2
modifications: disulfide 4-14; N-terminus assumed
SMILES: CC(C)C[C@@H]1NC(=O)CNC(=O)CNC(=O)[C@H](Cc2ccccc2)NC(=O)[C@H](Cc2c[nH]cn2)NC(=O)CNC(=O)[C@H]([C@@H](C)O)NC(=O)[C@@H](NC(=O)[C@@H](Cc2ccccc2)NC(=O)[C@H](CCCNC(=N)N)NC(=O)[C@@H](N)CCC(N)=O)C(C)(C)SSC[C@@H](C(=O)N[C@@H](CC(N)=O)C(=O)NCC(=O)N2CCC[C@H]2C(N)=O)NC(=O)[C@@H]2CCCN2C(=O)[C@H](Cc2ccc(O)cc2)NC1=O
IC50 [6]: 11400 nM

Other lines, results leading:

IC50 [1]: 16 nM
B1: Peptide No. 288 (peptide)
peptide: RF[Pen]TGHFG[Sar][NMeL]YPCGG
modifications: disulfide 3-13; also: dimer: C-termini joined through a branching Lys
notes: C-terminally linked dimer; drawing CHEM-US-00132

Kd [4]: 140 nM
IC50 [5]: 2800 nM
B3: Peptide No. 237 (peptide)
peptide: RF[Pen]TGHFGGWYPC-NH2
modifications: disulfide 3-13; N-terminus assumed
SMILES: C[C@@H](O)[C@@H]1NC(=O)[C@@H](NC(=O)[C@H](Cc2ccccc2)NC(=O)[C@@H](N)CCCNC(=N)N)C(C)(C)SSC[C@@H](C(N)=O)NC(=O)[C@@H]2CCCN2C(=O)[C@H](Cc2ccc(O)cc2)NC(=O)[C@H](Cc2c[nH]c3ccccc23)NC(=O)CNC(=O)CNC(=O)[C@H](Cc2ccccc2)NC(=O)[C@H](Cc2c[nH]cn2)NC(=O)CNC1=O

Kd [7]: 1000 nM
IC50 [8]: 5500 nM
B7: Peptide No. 213 (peptide)
peptide: QRF[Pen][NMeA]GHFGGLYPCNGP-NH2
modifications: disulfide 4-14; N-terminus assumed
SMILES: CC(C)C[C@@H]1NC(=O)CNC(=O)CNC(=O)[C@H](Cc2ccccc2)NC(=O)[C@H](Cc2c[nH]cn2)NC(=O)CNC(=O)[C@H](C)N(C)C(=O)[C@@H](NC(=O)[C@H](Cc2ccccc2)NC(=O)[C@H](CCCNC(=N)N)NC(=O)[C@@H](N)CCC(N)=O)C(C)(C)SSC[C@@H](C(=O)N[C@@H](CC(N)=O)C(=O)NCC(=O)N2CCC[C@H]2C(N)=O)NC(=O)[C@@H]2CCCN2C(=O)[C@H](Cc2ccc(O)cc2)NC1=O

IC50 [1]: 25 nM
B9: Peptide No. 280 (peptide)
peptide: RFCTGHFGGLYPC
modifications: Pen 3; Sar 9; NMeLeu 10; disulfide 3-13 within each chain; C-termini joined through the two amino groups of a branching Lys
notes: C-terminally linked dimer; drawing CHEM-US-00124

Kd [9]: 103 nM
IC50 [10]: 640 nM
B10: Peptide No. 205 (peptide)
peptide: RFCTGHFXLYPC
modifications: not fully specified; Pen 3; X 8 = 3(S)-2-amino-2-oxo-1-azepine acetic acid (so in the source) in place of Gly-Gly; disulfide 3-12; C-terminal amide

IC50 [11]: 19000 nM
B14: Peptide No. 216 (peptide)
peptide: QRFCTGHFGXYPCNGP
modifications: Pen 4; X 10 = L,L-Friedinger's lactam (dipeptide mimetic in place of Gly-Leu); disulfide 4-13; C-terminal amide

Kd [9]: 280 nM
IC50 [10]: 2300 nM
B15: Peptide No. 214 (peptide)
peptide: RFCTGHFXLYPC
modifications: not fully specified; Pen 3; X 8 = 3(S)-3-amino-2-oxo-1-pyrrolidine acetic acid in place of Gly-Gly; disulfide 3-12; C-terminal amide

IC50 [1]: 20 nM
B17: Peptide No. 287 (peptide)
peptide: RF[Pen]TGHFG[Sar][NMeL]YPCG
modifications: disulfide 3-13; also: dimer: C-termini joined through a branching Lys
notes: C-terminally linked dimer; drawing CHEM-US-00131

IC50 [1]: 7 nM
B19: Peptide No. 279 (peptide)
peptide: RF[Pen]TGHFG[Sar][NMeL]YPC-NH2
modifications: disulfide 3-13; also: dimer: N-termini joined by Bis-dPEG6 diacid linker
notes: N-terminally linked dimer; drawing CHEM-US-00123

IC50 [1]: 26 nM
B20: Peptide No. 201 (peptide)
peptide: QRF[Pen]TGHFGGLYPCNGP-NH2
modifications: disulfide 4-14; also: N-terminally linked homodimer via ethylene glycol-bis(succinic acid) linker
notes: N-terminally linked dimer

Kd [9]: 145 nM
IC50 [10]: 1100 nM
B21: Peptide No. 228 (peptide)
peptide: RF[Pen][NMeA]GHF[X2][NMeL]YPC-NH2
modifications: disulfide 3-12; N-terminus assumed
SMILES: CC(C)C[C@H]1C(=O)N[C@@H](Cc2ccc(O)cc2)C(=O)N2CCC[C@H]2C(=O)N[C@H](C(N)=O)CSSC(C)(C)[C@H](NC(=O)[C@H](Cc2ccccc2)NC(=O)[C@@H](N)CCCNC(=N)N)C(=O)N(C)[C@@H](C)C(=O)NCC(=O)N[C@@H](Cc2c[nH]cn2)C(=O)N[C@@H](Cc2ccccc2)C(=O)N[C@@H]2CCCN(CC(=O)N1C)C2=O
